# Data from the DeepSol protein solubility set.
# Test: soluble on expression in E. coli; label from the status in PepcDB or PDB records
row,Sequence,soluble on expression in E. coli
1,SENSDVINFSCLEKELHSALQADRKYQRENDAKFRALNQKVASYEEFRDIVLASHLKPLDRNDISGSPRKQPWNPVACRTNYVCASSEQVQPQLSEVQPRSASEFIRDWRRFAGCSFEKYSLLVSLGGEALQKIFSTEIGLGLLGEFLLILSQCLKSGDEDRVTGVLDGLSKTGRFSINLSLLSQAEQEACEELFNKLKVAAGECHPYKDNSNTSVVCEAGLTHMEDNKTDITTTLKELAGKYGTEK,soluble
2,MKVIETNFTDAKLLEPRLFGDDRGFFTESYNKKVLETLGVTHSFVQDNVSYSAEAGTIRGLHFQKNPKAQTKLIQVMQGAIYDVIVDLRKDSPTFKQWRGYILSADNHRQLLVPKGFAHGFCTLVPHTIVMYKVDEYYSADHDSGVLWNDKELAIPWPVTSPILSDKDRILPLLQECEDSF,not soluble
3,MSLSTEPLASRMRPKNIDEIISQQHLVGPRGIIRRMVDTKKLTSMIFYGPPGIGKTSIAKAISGSTQYKFRQLNAVTNTKKDMQLVVEEAKMSGQVILLLDEIHRLDKAKQDFLLPHLENGKIVLIGATTSNPYHAINPAIRSRAQIFELYPLNDEDVRQALTRAIEDDENGLKTYQPKIDEDAMTYFSTQSQGDVRSALNALELAVLSADNDKDGYRHVTLQDAKDCLQKGAFVSDKDGDMHYDVMSAFQKSIRGSDVNAALHYLARLIEAGDLPTIVRRLLVISYEDIGLASPNAGQRTLAAIESAERLGLPEARIPLSQAVIELCLSPKSNSAMSAIDSALSDIRNGHVGQIPNHLKDGHYQGAKDLGRSIGYKYPHQYVNGYVSQQYLPDKLKNKIYYEPKTTSKSEQQLKEIYNNLLKEGHHHHHH,soluble
4,SKIADPAFLRRLGYKIEFKPLSLTDYQALWMSLAKDYQMTLVPEFFETLSQLHRDNDVAYFPCLPKDLLGISRDILVFEGKEKIVSSDILTRAWGLYFTVDE,soluble
5,MTSELKNNEEDYNSSSDEDYDPTKDTDFDPKDEIDDQEECEDGIDEEVEHLKNEKQSDDHTSEKANSTEGSVDVDAIFAELTGLAPKPVVNDTSSKNIPKTEERVYPKSAASASNESTNQKVYPKKTETAGTSSESSIVPGKKRVGLLDAAKSLSKRSKISVLEKSDRDWKDFTTQNNLKEDLESHNRGKGGYLNKMDFLNRADNRQFEKERAFRATARKDTGQ,not soluble
6,MSLARVELHVHLDGAVGVEELYNISVKRRLQLPGGVKSAAELQAYIIRISPAWHRFDVVNDIIGGDEAVIRDVAEGFVGRQARAGIVYTEVRYDPERLSRSGLANVSISRQAAVRAVRDGLRVGAEKHGVVAYQILCAMRGKSAEQCMATATLAAQMRSTSMGGVVGLDLAGDEVTYRNAPYVGCLRYAKRDLRLNITVHSGEFTETPADEVRSAVVDMGADRVGHGYAAVRNAATLSLVKERLIHVEACPRSAQLHGDLDALDEYRRAQLNFGLNTDDPSVFFGNGTIALDEAIVQDVLHYSVDEVRNAYANALSAAFGPTSAIPGLLRGSAPIVVEGHHHHHH,soluble
7,MGSDKIHHHHHHMVKVEIDEGSGFCFGVVTAIHKAEEELAKGVTLYCLGDIVHNSREVERLKEMGLITINHEEFKQLHNAKVLLRAHGEPPETYIIAKENNIEIIDATCPVVLRLQKRIKQEYMQEDLDEKQIVIYGKNGHAEVLGLVGQTTGKAIVIEKLDEARRLDFSKSIRLYSQTTKSLDEFWEIVEYIKEHISPDVTFEYYDTICRQVANRMPNLRKFAASHDLIFFVSGKKSSNGKMLFEECKKVNPNSHLIDSADEIDDSLLPGVNSIGVCGATSTPKWLMEEISEAIKAQIKRQ,not soluble
8,MGSDKIHHHHHHMKHIHIIGIGGTFMGGIAAIAKEAGFEVSGCDAKMYPPMSTQLEALGIGVYEGFDTAQLDEFKADVYVIGNVAKRGMDVVEAILNRGLPYISGPQWLAENVLHHHWVLGVAGTHGKTTTASMLAWVLEYAGLAPGFLIGGVPENFSVSARLPQTPRQDPNSQSPFFVIEADEYDTAFFDKRSKFVHYRPRTAVLNNLEFDHADIFADLGAIQTQFHHLVRTVPSEGLIVCNGRQQSLQDTLDKGCWTPVEKFGTEHGWQAGEANADGSFDVLLDGKKAGHVAWSLMGGHNRMNALAVIAAARHAGVDIQTACEALSTFKNVKRRMEIKGTANGITVYDDFAHHPTAIETTIQGLRQRVGGARILAVLEPRSNTMKLGTMKAALPASLKEADQVFCYAGGADWDVAEALAPLGGRLHVGKDFDAFVAEIVKNAEAGDHILVMSNGGFGGIHTKLLDALR,not soluble
9,MTKINVPLETSNKTTSDLEKKKPFSVLLMGSDARPGETNGRADTIILATANKQQNAVEMVSIPRDTKVDYGNGDIGKINASYSNGGPSGTVSAVEKLMPGVPVDYFISINMEGFKDLVDAVGGITVYNDIDLTEVNSKFVKGNITLNGTDALQYVRIRHEDPRGDFGRQDRQRDVIIGIANKVISSSGVSNFESIMKAVGDNFQTNMTLTDITSMATNYSSVLKNVDSQELKGEGEMIYSESYGFDLYYFAPDETDLERVINMFKKSLDITELEHHHHHH,soluble
10,MTNDLADIKLYDQNPDEAAIERLHHRLALVMKNQDASLVATSDPKELERVEKWVQDVLGADEQSAKRGVSKVADMMSGDRRKSRMTFYYLVAKQLNALHKI,not soluble
11,QRDIPVQFIVAGVKRSDLRNLVEERIRKEGTKTREIRYREIGHYNGSVENIHLSVDKYEAAGGTEYFISYVTDDDHIVGFVRLRQPSEMAHRQEMLGSAIVRELKVFGQEVPVGRRDLKNWQHHGYGMRLMEEAERIARDDLGLDRILVISGIGVRQYFRKIGYEDLGPYVAKSLK,not soluble
12,TPDFGFTLRGNFTYSKNKVQNWEQAYLEYPYLEYNNFPYNSIRGYQAVGLFKDEDDIKYSPKQTFGEVMPGDIKYKDINGDGMVDKLDMVPLTHSTYPLLMYGLGAEIRYKNLTLGVLFKGTGKTSFFYVGQKTTVNDETRLNGMGYMPFFEGNTGNVLTLAANPVNRWIPRDYAIAHGIDPSLAENPNARFPRLQYGNNSNNSQLSTFWQGDSRYIRLQEITLNYHLATAFLRRIGVSSLDIQFVGNNLYVWDKVKLFDPEQARWNGRVYPIPSTYSLQLYVNL,not soluble
13,MAHHHHHHMCDPLVERFISDIIRDPQAWKRAVTSPDNRCCLLPTSNVIRSLAGPLFRRGCVDNVSSLRFLTTLRRDTLSGGNVQRVSMKRKDLRGPWDHRTRVSEEDQPNILIQLLVRQLERNGFGTSYRKAVYSLLGKQVKEMSKKKRQHDAAATAKTMKLNARRIEHLLMEEYNERKKTCDREGRRRQALVRGFFNKASVVVENEEFIGRRTIFQDALDECFAIKTLMEGETQKLTGIPPEHQRNYFAIQQKEKHERECLLARFETQRRAIYLQLQHDIKNSIKSEIRRIMRREKHIEELYKKHGCGK,not soluble
14,MAHHHHHHMQEFSTYSLFSRKNETVSGMDENFDNHPENYFKEEYYYDENDDMEVKVKKIGVTLKKFEPLKNGNVSETIKLIHLGNKDKKHIEAINNDIQIIKQELQAIYNELMNYTNGNKNIQQIFQQNILENDVLNQETERQTRSRGGG,soluble
15,MSYPSMSSFSTNVPDSENSSRSSVDGYNLKDTTSEKIKQFRENNKRKTSNSSSEEEPETEEGDPSRKLSSKSAEDKFVGRGIDAPRGRIANIRRESSCSVDSEAAHERLTKASQQVSTGFDDIALDSERSPGTSAEFRRRAPSFNTVIGEPISVVTNAFIPHSCSPSPTRQQADLIKQCYSPSTQQMVRPNISYSPSPRESPAQSPTRHAHKLKFQRAESPICRQPIKRKLTVTTLAETDIKRLFVPRSNTSPLVTDKTFPYPQNVGQLFESASTSSEFSSFSVPHSPGPLRAMTPLSSVSVGDQEENSPSVKDAEEKTTDNDEEMQDVEMSDNGTEVDDDLIRAATEAPLPDDDDQNDFAY,not soluble
16,MGSDKIHHHHHHMAAEIIAVTQQKGGVGKSTIAMHLGAAFHEKGRRVLVIDADGQNTLVHWSSSSADSESGIPFPVVNLAEAGSQIHREIKKFINDYDIIIVDCPPSITEKVSGVVLLAATIAVIPTSSSPADYWSSVGLVKLIQQAQVMNEDLRAVFLLNKTEEKRMLTRELKRALEELGFPLLKTQIPTREAYKQAMALGQTVLQMNDRGAKLAAAEIRACADEIVAMLP,not soluble
17,MSYLDTATDLPNQTLFLEYLNIALSNARRHHAQVGVLLCQINNWSDLKRKRGDAVANAFLQEAGQKLKSNLRNGDIVSRWDKDEFIFLVSKVQDTSSLLGIAQRLMKPVLAPVTAGGRPFQPEITYGVALYPVDGEQVNDLIGHIRENLQQLLPQPTLEHHHHHH,not soluble
